US11098109B2, “Single-chain variable fragment anti-CD133 antibodies and uses thereof” (REGENTS OF THE UNIVERSITY OF MINNESOTA, priority 2010, dated 2021)

T1: CD133 (Homo sapiens, UniProt O43490)
T1 construct: endogenous in cells
T1 sequence (O43490 20-865): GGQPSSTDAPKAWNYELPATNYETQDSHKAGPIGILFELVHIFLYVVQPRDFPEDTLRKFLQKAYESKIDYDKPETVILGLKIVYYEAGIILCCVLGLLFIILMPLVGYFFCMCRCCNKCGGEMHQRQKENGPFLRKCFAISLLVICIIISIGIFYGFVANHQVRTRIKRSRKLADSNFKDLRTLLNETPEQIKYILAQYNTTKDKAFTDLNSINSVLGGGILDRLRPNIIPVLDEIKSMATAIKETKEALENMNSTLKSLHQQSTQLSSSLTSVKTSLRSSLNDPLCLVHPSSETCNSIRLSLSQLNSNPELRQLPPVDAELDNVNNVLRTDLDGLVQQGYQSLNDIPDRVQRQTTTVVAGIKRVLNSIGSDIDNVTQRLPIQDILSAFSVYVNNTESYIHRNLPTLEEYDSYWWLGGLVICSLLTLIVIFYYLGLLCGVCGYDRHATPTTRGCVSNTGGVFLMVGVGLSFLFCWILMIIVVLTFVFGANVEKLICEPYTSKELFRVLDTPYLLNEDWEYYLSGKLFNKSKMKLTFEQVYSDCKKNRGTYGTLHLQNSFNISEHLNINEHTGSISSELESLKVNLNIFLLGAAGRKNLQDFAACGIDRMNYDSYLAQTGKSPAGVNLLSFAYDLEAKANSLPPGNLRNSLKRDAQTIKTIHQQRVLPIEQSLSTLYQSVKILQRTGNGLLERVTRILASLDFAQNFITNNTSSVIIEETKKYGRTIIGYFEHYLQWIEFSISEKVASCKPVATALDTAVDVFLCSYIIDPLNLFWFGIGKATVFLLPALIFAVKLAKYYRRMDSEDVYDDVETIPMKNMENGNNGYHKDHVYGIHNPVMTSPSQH


Legend:
[1] = tested on: CD133^+ Caco-2 cells; experiment: Immunofluorescence of fixed Caco-2 cells with hybridoma supernatants; type: binding, human; conditions: hybridoma supernatant
Method: FIG. 2: Analysis of the newly generated CD133 hybridoma. Supematants of hybridoma clones were tested as a primary antibody in western blot (A) and Immunofluorescence (B) assays. Pre-immunized serum (-ve) or post immune anti sera (a.s.) served as controls. For western blot, Caco-2 lysates normalized for protein concentration were loaded onto a SDS-PAGE gel, resolved, blotted onto a nitrocellulose membrane and cut into strips. Each strip was probed with supernatant from the identified hybridoma. Membrane in Lane 1 was probed with a commercially available antibody (ab 19898, Abcam) and served as an additional positive control. For immunofluorescence, Caco-2 cells were fixed and immunostained with the hybridoma supernatants. A commercially available antibody (293C3, Militenyi) was used as additional positive control. Scale bars in the panel represent 200 micrometers. Supernatant of Hybridoma Clone 7 was used in the immunohistochemical analysis of primary glioblastoma and kidney tissue (C).
Caco-2 cells were plated in 16-well chamber slides. After four days of growth, the cells were fixed with 4% paraformaldehyde, washed in DPBS and then incubated in 200 mM glycine for 10 minutes. The cells were then blocked with a solution of 0.5% BSA and 0.2% gelatin in PBS for 10 minutes. […] The cells were further washed with PBS and then visualized under a fluorescence microscope. […]

[2] = target: T1, CD133; experiment: Immunohistochemistry of human glioma and kidney tissue sections; type: binding
Method: 5 μm paraffin sections of human kidney or glioblastoma tissue were mounted onto charged slides. The sections were deparaffinized and rehydrated using standard methods, rinsed in running tap-water and placed in a PBS bath for five minutes. The slides were then incubated in a pre-heated steamer bath with staining dish containing EDTA buffer (pH 8.0) for 30 minutes and then cooled for 20 minutes. The slides were washed with PBS (pH 7.4) for minimum of five minutes and then subjected to following incubation steps: blocking with serum-free background Sniper (Biocare Medical. Concord, Calif.), primary antibody at a 1:200 dilution of hybridoma supernatant at 4° C. overnight, Leica Bond post primary. Leica Bond polymer, and DAB chromagen developer. The sections were rinsed well, counterstained with hematoxylin, dehydrated, sealed with a cover slip and imaged.

[3] = target: T1, CD133; experiment: Flow cytometry of carcinoma lines with FITC-labeled anti-CD133 scFv; type: binding
Method: We detected about 5% CD133 cells/95% CD133-cells in the various carcinomas that we examined. […] The anti-CD133 scFV was labeled with FITC and then standard flow cytometry was performed. The levels of CD133 expression (4-7.1%) are in agreement with values reported values. CaCo-2 colorectal carcinoma is a cell line known to express high levels of CD133+ cells so we included it as a positive control. Anti-CD45-FITC and anti-CD19 FITC are negative controls that preferentially recognize hematopoietic cells.
CD133 expression on UMSCC-11B cells on head and neck cancer cells. CD133 expression was measured on the UMSCC-11B cell line using flow cytometery. Cells were reacted with anti-CD133scFV-FITC for 30 minutes in the dark on ice. Cells were then washed 3× using saline and studied using a flow cytometer (FACScanto™ II, BD Biosciences, Franklin Lakes, N.J.). The blank (untreated cells) was used to establish the gate of non-positive cell activity. CD133 was expressed on both head and neck cancer cell lines, NA and UMSC-11B, at 5.9% and 6% respectively (Table 13). The Caco-2 colorectal carcinoma was included as a positive control cell line since it known to overexpress CD133. Controls included cells reacted with anti-EpCam-FITC, anti-CD45-FITC, and anti-CD19-FITC. Expression of CD45 and CD19 is mostly restricted to normal malignant hematopoietic cells.

| Molecule | immunofluorescence staining of the Caco-2 cell membrane [1] | immunohistochemical staining [2] | % Positive Cells, CD133+ ([3]; BT474, breast) | % Positive Cells, CD133+ ([3]; Caco-2, colon, positive control line, listed as anti-CD133 scFV) | % Positive Cells, CD133+ ([3]; Caco-2, colon, positive control line, listed as anti-CD133scFV-FITC) | % Positive Cells, CD133+ ([3]; MDA-MB231, breast) | % Positive Cells, CD133+ ([3]; MDA-MD468, breast) | % Positive Cells, CD133+ ([3]; MiaPaCa-2, pancreas) | % Positive Cells, CD133+ ([3]; NA, head & neck) | % Positive Cells, CD133+ ([3]; SKBR3, breast) | % Positive Cells, CD133+ ([3]; UMSCC-11B, head & neck, listed as anti-CD133 scFV) | % Positive Cells, CD133+ ([3]; UMSCC-11B, head & neck, listed as anti-CD133scFV-FITC) | levels of CD133 expression ([3]; various carcinoma lines of Table 1) |
| --- | --- | --- | --- | --- | --- | --- | --- | --- | --- | --- | --- | --- | --- |
| Hybridoma Clone 7: monoclonal antibody produced by Hybridoma Clone 7 that specifically binds to human CD133 (antibody, V domains shown) VL: DIVLSQSPAIMSASPGEKVTISCSASSSVSYMYWYQQKPGSSPKPWIYRTSNLASGVPARFSGSGSGTSYSLTISSMEAEDAATYYCQQYHSYPPTFGAGTKLELK VH: LEVKLVESGPELKKPGETVKISCKASGYTFTDYSMHWVNQAPGKGLKWMGWINTETGEPSYADDFKGRFAFSLETSASTAYLQINNLKNEDTATYFCATDYGDYFDYWGQGTTLTVSS | robustly stained | membrane-specific staining |  |  |  |  |  |  |  |  |  |  |  |
| No. 11 scFv: soluble scFv of the Hybridoma Clone 7 antibody expressed in E. coli Top10F', SEQ ID NO:58; also used FITC-labeled (protein, optionally FITC-labeled; scFv polypeptide) scFv: MDIVLSQSPAIMSASPGEKVTISCSASSSVSYMYWYQQKPGSSPKPWIYRTSNLASGVPARFSGSGSGTSYSLTISSMEAEDAATYYCQQYHSYPPTFGAGTKLELKSSGGGGSGGGGGGSSRSSLEVKLVESGPELKKPGETVKISCKASGYTFTDYSMHWVNQAPGKGLKWMGWINTETGEPSYADDFKGRFAFSLETSASTAYLQINNLKNEDTATYFCATDYGDYFDYWGQGTTLTVSS |  |  | 4.0% | 62.8% | 80.0% | 4.0% | 5.2% | 7.1% | 5.9% | 4.2% | 6.0% | 6% | 4-7.1% |
